In one test the target is PP2A Aα subunit (human) (UniProt P30153). Description: MST.
In test [1] the target is T1, PP2A Cα subunit (human, UniProt P67775 2-309). Description: BLI.
Test [2] has as its target T2, PP2A(B55α) holoenzyme (human, UniProt P30153 1-589; P63151 1-447; P67775 2-309). Kind of test: BLI. (In BLI a coated tip is dipped into the sample, and binding shifts an interference pattern.)
Test [3] addresses T2, PP2A(B55α) holoenzyme. Description: BLI. The source holds these as a separate data set.
Test [4] concerns the target T1, PP2A Cα subunit. Kind of test: cryo-EM structure.

T2 sequence (P30153 whole entry, chain 1 of 3): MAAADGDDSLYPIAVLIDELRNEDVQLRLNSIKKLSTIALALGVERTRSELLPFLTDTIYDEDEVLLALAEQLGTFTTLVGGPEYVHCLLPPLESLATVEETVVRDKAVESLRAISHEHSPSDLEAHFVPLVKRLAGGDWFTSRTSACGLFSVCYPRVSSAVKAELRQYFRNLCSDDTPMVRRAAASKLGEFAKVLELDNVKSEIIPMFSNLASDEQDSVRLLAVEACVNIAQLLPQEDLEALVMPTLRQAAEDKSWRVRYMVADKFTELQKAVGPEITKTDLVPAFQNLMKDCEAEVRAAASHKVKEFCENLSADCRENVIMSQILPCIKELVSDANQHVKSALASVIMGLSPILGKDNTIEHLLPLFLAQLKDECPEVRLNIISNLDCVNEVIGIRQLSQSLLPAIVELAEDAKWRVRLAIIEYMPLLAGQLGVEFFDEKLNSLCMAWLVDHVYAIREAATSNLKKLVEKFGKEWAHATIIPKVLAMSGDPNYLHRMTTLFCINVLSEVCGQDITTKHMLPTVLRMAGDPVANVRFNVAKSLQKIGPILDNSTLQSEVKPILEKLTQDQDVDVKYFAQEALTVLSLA
T2 sequence (P63151 whole entry, chain 2 of 3): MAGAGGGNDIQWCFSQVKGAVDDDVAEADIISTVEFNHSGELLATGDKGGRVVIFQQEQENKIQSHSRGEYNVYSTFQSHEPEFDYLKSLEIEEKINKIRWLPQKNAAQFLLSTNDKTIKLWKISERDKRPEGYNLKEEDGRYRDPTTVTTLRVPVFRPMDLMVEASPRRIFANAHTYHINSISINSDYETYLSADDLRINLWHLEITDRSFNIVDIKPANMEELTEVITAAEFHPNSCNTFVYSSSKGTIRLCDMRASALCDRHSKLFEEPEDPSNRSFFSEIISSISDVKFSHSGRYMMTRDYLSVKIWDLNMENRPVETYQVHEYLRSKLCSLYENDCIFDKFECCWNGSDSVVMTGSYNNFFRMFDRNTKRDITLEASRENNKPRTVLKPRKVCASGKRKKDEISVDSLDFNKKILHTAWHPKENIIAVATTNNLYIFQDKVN
T2 sequence (P67775 2-309, chain 3 of 3): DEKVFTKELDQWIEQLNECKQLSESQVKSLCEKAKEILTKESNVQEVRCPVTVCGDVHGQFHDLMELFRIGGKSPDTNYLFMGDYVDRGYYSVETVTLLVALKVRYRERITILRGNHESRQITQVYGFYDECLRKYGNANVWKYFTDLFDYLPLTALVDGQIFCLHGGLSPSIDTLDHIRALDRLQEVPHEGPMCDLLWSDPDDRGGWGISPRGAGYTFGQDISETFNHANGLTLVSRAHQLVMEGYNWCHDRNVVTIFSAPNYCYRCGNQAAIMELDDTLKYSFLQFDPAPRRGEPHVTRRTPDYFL
Chain of PP2A Aα subunit (human) (P30153 whole entry): as the sequence (P30153 whole entry, chain 1 of 3) above
T1 sequence (P67775 2-309): as the sequence (P67775 2-309, chain 3 of 3) above

On to “tag-free ENSA^WT (from UniProt O43768 1-121) (natural protein)”, for which the Kd (as a rule, the concentration at which binding is half-saturated) in the test with PP2A Aα subunit (human) worked out at 600 µM.

In turn, “tag-free ENSA^S67D (from UniProt O43768 1-121) (natural protein)” had a Kd with PP2A Aα subunit (human) of 800 µM.

B1: GST-ENSA^S67D-His6 (natural protein, human, UniProt O43768 1-121, looked up)
chain: MSQKQEEENPAEETGEEKQDTQEKEGILPERAEEAKLKAKYPSLGQKPGGSDFLMKRLQKGQKYFDDGDYNMAKAKMKNKQLPSAGPDKNLVTGDHIPTPQDLPQRKSSLVTSKLAGGQVE
In the case of B1, in the test with PP2A Cα subunit [1], the binding result is “binds”. The same molecule returned an equilibrium dissociation constant (Kd) with PP2A(B55α) holoenzyme [2] of 0.66 µM.

B2: GST-ENSA^S67D R57A-His6 (natural protein, human, UniProt O43768 1-121, looked up)
chain: MSQKQEEENPAEETGEEKQDTQEKEGILPERAEEAKLKAKYPSLGQKPGGSDFLMKALQKGQKYFDDGDYNMAKAKMKNKQLPSAGPDKNLVTGDHIPTPQDLPQRKSSLVTSKLAGGQVE
With B2, the binding result with PP2A(B55α) holoenzyme [3] is reported as “binds”.

B3: GST-ENSA^S67D E30A-His6 (natural protein, human, UniProt O43768 1-121, looked up)
chain: MSQKQEEENPAEETGEEKQDTQEKEGILPARAEEAKLKAKYPSLGQKPGGSDFLMKRLQKGQKYFDDGDYNMAKAKMKNKQLPSAGPDKNLVTGDHIPTPQDLPQRKSSLVTSKLAGGQVE
As for B3, the binding result in the test with PP2A(B55α) holoenzyme [3] is “binds”.

B4: GST-ENSA^S67D K40A-His6 (natural protein, human, UniProt O43768 1-121, looked up)
chain: MSQKQEEENPAEETGEEKQDTQEKEGILPERAEEAKLKAAYPSLGQKPGGSDFLMKRLQKGQKYFDDGDYNMAKAKMKNKQLPSAGPDKNLVTGDHIPTPQDLPQRKSSLVTSKLAGGQVE
Take B4: the binding result with PP2A(B55α) holoenzyme [3] is “binds”.

B5: GST-ENSA^WT-His6 (natural protein, human, UniProt O43768 1-121, looked up)
chain: MSQKQEEENPAEETGEEKQDTQEKEGILPERAEEAKLKAKYPSLGQKPGGSDFLMKRLQKGQKYFDSGDYNMAKAKMKNKQLPSAGPDKNLVTGDHIPTPQDLPQRKSSLVTSKLAGGQVE
In turn, B5 had a Kd with PP2A(B55α) holoenzyme [2] of 1.45 µM.

B6: His6-TEV site-ENSA^S67D (natural protein, human, UniProt O43768 1-121, looked up)
chain: MSQKQEEENPAEETGEEKQDTQEKEGILPERAEEAKLKAKYPSLGQKPGGSDFLMKRLQKGQKYFDDGDYNMAKAKMKNKQLPSAGPDKNLVTGDHIPTPQDLPQRKSSLVTSKLAGGQVE
Regarding B6, the binding result with PP2A Cα subunit [4] is on record as “binds”.
